Consider 5 substances from US7407934.

29Pro-h-Amylin (peptide), sequence (peptide): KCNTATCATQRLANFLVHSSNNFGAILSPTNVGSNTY
28Pro-h-Amylin (peptide), sequence (peptide): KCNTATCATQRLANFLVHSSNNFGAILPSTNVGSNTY

The test has as its target amylin receptor (rat basal forebrain membranes containing the nucleus accumbens and surrounding regions) (rat). The experiment in a line: competition with 125I-Bolton-Hunter rat amylin on rat basal forebrain membranes, filtration.
Take 1Ala-h-Amylin (peptide): the IC50 – broadly, the concentration that gives 50% inhibition – stood at 0.148 nM.

Substance 1Ser-h-Amylin (peptide) came in with an IC50 of 0.033 nM.

The substance 28Pro-h-Amylin (peptide) gave an IC50 of 0.015 nM.

29Pro-h-Amylin (peptide) yielded an IC50 of 0.064 nM.

“purified human amylin (from UniProt P10997 34-70) (peptide)” had an IC50 of 0.05 nM.
